We go through two compounds from patent US20240285816A1, “FORMULATIONS FOR RADIOTHERAPY AND DIAGNOSTIC IMAGING” (priority 2016, published 2024).

The nature of data set [1]: Single dose preclinical toxicology study, intravenous injection. The format is in vivo, Sprague Dawley rats. Here is the method: A single dose preclinical toxicology study in Sprague Dawley rats was conducted to evaluate the potential toxicity of SARTATE when administered via intravenous injection. Testing was performed on solutions of SARTATE-copper-complex (SCC) and unlabeled SARTATE ligand (SL) at a 1:1 ratio. The study was conducted according to the requirements of OECD GLP Principles.
The test item was administered once to six groups of 10 rats (5/sex) at three doses of 50, 250 and 1000 μg/kg in the vehicle at a volume of 3 mL/kg. Two vehicle control groups of 10 rats (5/sex) were administered the vehicle only (10% ethanol in 0.9% sodium chloride and 0.056% gentisic acid) at the same volumetric dose.
Four groups of rats (one vehicle and three test item treated 50, 250 and 1000 μg/kg) from the main study were sacrificed on Day 2.
The following parameters were evaluated: mortality, daily clinical observations, weekly body weights, weekly food consumption, haematology, biochemistry, urinalysis, organ weights and gross necropsy on day of sacrifice. Extensive histopathology was performed on all animals.

A short description of another data set: in vivo. The arrangement: species or system Balb/c nude mice. To be noted: Balb/c nude, mouse.
Data set [2] is classed as in vitro ADME. As to conditions: human, serum.
A short description of data set [3]: HPLC analysis of radiochemical purity and stability of the formulation (gamma scintillation detector). The format is physicochemical. As to conditions: post-manufacture. The text has this:
The formulations of a radioisotope-ligand complex referred to herein are stable in solution and under physiological conditions for a time. The stability of the formulation relates to the stability of the complex, where the radioisotope may undergo dissociation or the complex may undergo radiolysis. The stability of the complex can be measured by considering the radiochemical purity of the formulation. Radiochemical purity is defined as the amount of the radioisotope complexed by the sarcophagine ligand expressed as percentage of the total amount of the radioisotope present in the formulation. The radioisotope may be present in the formulation as a complex with the sarcophagine ligand, as a free radioisotope or as part of a radiolysis product.
The solution is then filtered through a solid phase extraction cartridge. […] HPLC analysis of the solution obtained can be seen in FIG. 1, showing over 97% radiochemical purity. Further HPLC analysis of the same product solution obtained over multiple time points can be seen in FIG. 2, showing that the radiochemical purity remains >90% for more than 11 hours.
The solution is then filtered through a solid phase extraction cartridge. […] HPLC analysis of the solution obtained can be seen in FIG. 3, showing over 98% radiochemical purity. […]

The mark [4] stands for this setting: test item SCC and SL 1:1, 2-day and 15-day experimental periods.

With `CC(O)[C@H](NC(=O)[C@@H]1CSSC[C@H](NC(=O)[C@@H](Cc2ccccc2)NC(=O)CCCC(=O)NC23CNCCNCC(C)(CNCCNC2)CNCCNC3)C(=O)N[C@@H](Cc2ccc(O)cc2)C(=O)N[C@H](Cc2c[nH]c3ccccc23)C(=O)N[C@@H](CCCCN)C(=O)N[C@@H](C(C)O)C(=O)N1)C(=O)O` (stereo partly drawn) [SARTATE, MeCOSar-D-Phe-Cys-Tyr-D-Trp-Lys-Thr-Cys-Thr-OH], in data set [1] (both sexes, Sprague Dawley, in vivo, intravenous, from rat NOAEL of 1 mg/kg, read-out: Human Equivalent Dose (HED) of the NOAEL), the Human equivalent dose of the NOAEL at 14 days is 0.16 mg/kg. The NOAEL at 14 days in data set [1] (both sexes, in vivo, iv, single i.v. dose, Sprague Dawley rat, read-out: No Observed Adverse Effect level (NOAEL)) was 1 mg/kg. The toxic effects entry in data set [1] (intravenously at 50, 250 and 1000 μg/kg) was “no toxic effects”. The “safety margin of NOAEL over the maximum human dose” value in data set [1] (maximum total dose 0.02 mg per patient) is 50 times. The “Human Equivalent Dose as total dose” value in data set [1] (patient with a weight of 70 kg) is 11.2 mg. In data set [1] (test item SCC and SL 1:1), the “haematology, blood biochemistry and urine analysis” value is “no test item-related effects”; the “organ weight and histopathology” value is on record as “no evidence of any test item-related effect”. Besides, in data set [1] (setting [4]), the “body weight gains versus vehicle control” value is recorded as “comparable body weights gains”, the clinical abnormalities entry was “no clinical abnormalities related to treatment” and the “feed intake versus control” value is “similar”. For the same compound, the “macroscopic abnormalities at necropsy” value in data set [1] (test item SCC and SL 1:1, all animals) is reported as “No macroscopic abnormalities”. For the same compound, the mortality result in data set [1] (test item SCC and SL at 1:1 ratio, 50, 250 and 1000 μg/kg i.v. single dose, treatment and recovery periods) was “No mortalities related to treatment”.

With `CC(O)[C@H](NC(=O)[C@@H]1CSSC[C@H](NC(=O)[C@@H](Cc2ccccc2)NC(=O)CCCC(=O)NC23CNCCNCC(C)(CNCCNC2)CNCCNC3)C(=O)N[C@@H](Cc2ccc(O)cc2)C(=O)N[C@H](Cc2c[nH]c3ccccc23)C(=O)N[C@@H](CCCCN)C(=O)N[C@@H](C(C)O)C(=O)N1)C(=O)O` (stereo partly shown) [^64Cu-SARTATE, metal not drawn], the results for the tissue uptake at 2 h in the data set “in vivo” (blood) and in “in vivo” (uptake by the liver) were 0.4 ± 0.2 %ID/g and 3.1 ± 1.3 %ID/g, respectively. The tissue uptake at 24 h in the data set “in vivo” (blood) was 0.1 ± 0.02 %ID/g; in the data set “in vivo” (kidney uptake), 10.1 ± 3.5 %ID/g; in the data set “in vivo” (muscle accumulation), 0.1 ± 0.01 %ID/g; in the data set “in vivo” (tumour uptake), 31.4 ± 14 %ID/g; in “in vivo” (uptake in lungs), 0.6 ± 0.3 %ID/g; in “in vivo” (uptake in spleen), 0.8 ± 0.2 %ID/g. In addition, the “time for which the complex remains intact (metabolic stability)” value in data set [2] is recorded as “up to 45 hours”. In addition, in data set [3], the “time for which stability of the formulation is observed” value is on record as “up to 45 hours”.

The NOAEL is the highest tested level that showed no adverse finding. A word on the tissue uptake: it is the share of the injected amount in each gram of the tissue. Low readings indicate little accumulation, high ones strong accumulation.
